The test deals with H6MA-CA, His-tagged matrix-capsid (MAp17-CAp24) domains of the HIV-1 Gag precursor (HIV-1 (pNL4-3)). In words: ITC.

B1: Ank^GAG1D4 (designed binder)
chain: DLGKKLLEAARAGQDDEVRLLLEHGADVNARDSIGSTPLHLAAYYGHLEIVRLLLEHGADVNARDSTGTTPLHYAARLGHLEIVRLLLEHGADVNARDAMGWTPLHLAAKKGHLEIVRLLLKHGADVNANDHFGKTAFDISIDNGNEDLAEILQSFNHHHHHH
Take B1: the Kd – broadly, the constant that tells how readily two partners part at equilibrium – was found to be 1.09 µM.

For the origin of these results see publication PMC3308923 (2012).
